One block for each binder: values may come before it.
Tests used:
Test in all cases: holdup assay
Parameters in all cases: key: below the threshold = too weak to quantify, mostly under pKd 3.1 to 4
AHNAK1, Q09666 = target: AHNAK1, Q09666
NHERF4_2, Q86UT5 = target: NHERF4_2, Q86UT5
PARD3_3, Q8TEW0 = conditions: plain residues with an end cap or a label only (N-terminal biotin on a linker: ttds)
FRMPD2_2, Q68DX3 = target: FRMPD2_2, Q68DX3
PDZD2_2, O15018 = target: T1, PDZD2_2, O15018
T1 sequence (O15018 329-429, limits assumed, looked up): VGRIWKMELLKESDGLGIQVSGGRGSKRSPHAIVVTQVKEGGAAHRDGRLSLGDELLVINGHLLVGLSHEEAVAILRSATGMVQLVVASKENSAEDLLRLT

SNTG2, Q9NY99 = target: T2, SNTG2, Q9NY99
T2 sequence (Q9NY99 68-166, limits assumed, looked up): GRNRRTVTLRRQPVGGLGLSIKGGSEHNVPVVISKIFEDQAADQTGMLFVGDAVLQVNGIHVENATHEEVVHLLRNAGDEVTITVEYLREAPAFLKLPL

SCRIB_3, Q14160 = target: SCRIB_3, Q14160
Chain of SCRIB_3, Q14160 (Q14160 999-1103): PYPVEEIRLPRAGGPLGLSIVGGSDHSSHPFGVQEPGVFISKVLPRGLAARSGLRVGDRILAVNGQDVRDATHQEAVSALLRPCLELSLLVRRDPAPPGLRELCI

GRIP1_4, Q9Y3R0 = target: T3, GRIP1_4, Q9Y3R0
T3 sequence (Q9Y3R0 467-571, limits assumed, looked up): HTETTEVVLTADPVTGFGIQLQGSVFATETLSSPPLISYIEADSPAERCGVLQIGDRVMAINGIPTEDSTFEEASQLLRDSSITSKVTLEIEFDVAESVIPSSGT

MPDZ_12, O75970 = target: T4, MPDZ_12, O75970
T4 sequence (O75970 1857-1958, limits assumed, looked up): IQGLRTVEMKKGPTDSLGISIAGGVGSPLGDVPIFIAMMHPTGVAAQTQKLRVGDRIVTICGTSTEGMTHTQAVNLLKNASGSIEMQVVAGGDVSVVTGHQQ

GRID2IP_2, A4D2P6 = target: GRID2IP_2, A4D2P6
Chain of GRID2IP_2, A4D2P6 (A4D2P6 272-370): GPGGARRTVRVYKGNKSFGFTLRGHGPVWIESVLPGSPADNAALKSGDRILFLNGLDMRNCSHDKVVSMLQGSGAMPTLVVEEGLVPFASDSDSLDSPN

PTPN13_1, Q12923 = target: T5, PTPN13_1, Q12923
T5 sequence (Q12923 1088-1188, limits assumed, looked up): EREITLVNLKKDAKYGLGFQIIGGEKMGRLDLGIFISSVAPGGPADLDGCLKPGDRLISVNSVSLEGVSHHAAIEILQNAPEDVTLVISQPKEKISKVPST

GRIP1_7, Q9Y3R0 = target: T6, GRIP1_7, Q9Y3R0
T6 sequence (Q9Y3R0 999-1096, limits assumed, looked up): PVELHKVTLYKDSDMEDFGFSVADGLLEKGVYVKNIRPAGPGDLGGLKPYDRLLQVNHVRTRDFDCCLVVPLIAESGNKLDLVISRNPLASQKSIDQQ

DLG4_2, P78352 = target: DLG4_2, P78352
Chain of DLG4_2, P78352 (P78352 155-259): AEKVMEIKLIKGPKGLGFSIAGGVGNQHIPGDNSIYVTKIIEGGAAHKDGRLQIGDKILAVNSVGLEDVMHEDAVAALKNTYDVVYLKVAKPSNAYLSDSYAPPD

LNX1_3, Q8TBB1 = target: LNX1_3, Q8TBB1
Chain of LNX1_3, Q8TBB1 (Q8TBB1 500-596): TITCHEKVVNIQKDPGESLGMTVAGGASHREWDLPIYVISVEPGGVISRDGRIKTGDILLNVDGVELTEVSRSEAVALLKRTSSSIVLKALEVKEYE

APBA1_2, Q02410 = target: T7, APBA1_2, Q02410
T7 sequence (Q02410 742-832, limits assumed, looked up): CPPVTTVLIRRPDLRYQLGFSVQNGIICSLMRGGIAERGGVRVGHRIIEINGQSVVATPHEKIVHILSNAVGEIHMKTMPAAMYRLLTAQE

DLG3_3, Q92796 = target: T8, DLG3_3, Q92796; conditions: plain residues with an end cap or a label only (N-terminal biotin on a linker: ttds)
T8 sequence (Q92796 374-475, limits assumed, looked up): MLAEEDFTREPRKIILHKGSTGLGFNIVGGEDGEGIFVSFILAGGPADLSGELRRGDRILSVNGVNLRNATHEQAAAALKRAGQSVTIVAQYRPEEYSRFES

FRMPD2_1, Q68DX3 = target: FRMPD2_1, Q68DX3
Chain of FRMPD2_1, Q68DX3 (Q68DX3 770-861): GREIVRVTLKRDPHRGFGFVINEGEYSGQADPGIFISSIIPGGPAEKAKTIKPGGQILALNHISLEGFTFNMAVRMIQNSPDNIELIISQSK

LIN7B, Q9HAP6 = target: T9, LIN7B, Q9HAP6
T9 sequence (Q9HAP6 88-185, limits assumed, looked up): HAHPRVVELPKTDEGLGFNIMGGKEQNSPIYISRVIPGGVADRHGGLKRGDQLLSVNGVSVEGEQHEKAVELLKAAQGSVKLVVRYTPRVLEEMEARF

NHERF3_4, Q5T2W1 = target: T10, NHERF3_4, Q5T2W1
T10 sequence (Q5T2W1 373-468, limits assumed, looked up): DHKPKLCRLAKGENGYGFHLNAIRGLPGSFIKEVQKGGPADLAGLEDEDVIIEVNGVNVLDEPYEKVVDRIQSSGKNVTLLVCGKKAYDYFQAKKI

MAGI2_4, Q86UL8 = conditions: plain residues with an end cap or a label only (N-terminal biotin on a linker: ttds)
Chain of MAGI2_4, Q86UL8 (Q86UL8 772-865): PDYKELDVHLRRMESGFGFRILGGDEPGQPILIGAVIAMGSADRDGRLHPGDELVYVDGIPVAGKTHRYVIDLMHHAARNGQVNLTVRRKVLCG

MAGI2_6, Q86UL8 = target: MAGI2_6, Q86UL8
Chain of MAGI2_6, Q86UL8 (Q86UL8 1141-1229): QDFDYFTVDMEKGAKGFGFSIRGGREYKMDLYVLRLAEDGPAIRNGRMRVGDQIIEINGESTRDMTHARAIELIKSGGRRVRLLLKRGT

MPP2, Q14168 = target: T11, MPP2, Q14168
T11 sequence (Q14168 180-250, limits assumed, looked up): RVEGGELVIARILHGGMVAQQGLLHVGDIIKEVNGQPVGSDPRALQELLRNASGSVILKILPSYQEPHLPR

FRMPD4, Q14CM0 = target: FRMPD4, Q14CM0
Chain of FRMPD4, Q14CM0 (Q14CM0 67-160): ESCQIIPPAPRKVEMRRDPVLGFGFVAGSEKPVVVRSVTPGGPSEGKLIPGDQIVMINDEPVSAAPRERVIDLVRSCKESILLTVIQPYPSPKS

LIMK2, P53671 = target: LIMK2, P53671
Chain of LIMK2, P53671 (P53671 143-248): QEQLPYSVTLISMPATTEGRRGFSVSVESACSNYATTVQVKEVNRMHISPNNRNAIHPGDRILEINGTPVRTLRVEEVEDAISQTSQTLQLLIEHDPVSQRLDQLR

DLG1_2, Q12959 = target: DLG1_2, Q12959
Chain of DLG1_2, Q12959 (Q12959 314-412): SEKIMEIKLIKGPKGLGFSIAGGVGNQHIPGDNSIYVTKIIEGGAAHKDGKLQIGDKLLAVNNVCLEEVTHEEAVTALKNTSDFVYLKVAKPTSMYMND

GRIP2_7, Q9C0E4 = target: GRIP2_7, Q9C0E4
Chain of GRIP2_7, Q9C0E4 (Q9C0E4 934-1023): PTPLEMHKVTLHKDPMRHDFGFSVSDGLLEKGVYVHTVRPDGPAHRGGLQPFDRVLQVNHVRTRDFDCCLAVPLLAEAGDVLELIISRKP

NOS1, P29475 = target: NOS1, P29475
Chain of NOS1, P29475 (P29475 9-101): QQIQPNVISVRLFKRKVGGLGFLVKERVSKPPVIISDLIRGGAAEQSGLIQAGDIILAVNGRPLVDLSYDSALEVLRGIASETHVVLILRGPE

[1] = plain residues with an end cap or a label only (N-terminal biotin on a linker: ttds)
[2] = plain residues with an end cap or a label only (N-terminal biotin on a linker: ahx)

Chain of FRMPD2_2, Q68DX3 (Q68DX3 944-1038): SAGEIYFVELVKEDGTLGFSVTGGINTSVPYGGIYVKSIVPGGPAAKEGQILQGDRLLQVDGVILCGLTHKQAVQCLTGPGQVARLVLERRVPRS
Chain of PARD3_3, Q8TEW0 (Q8TEW0 582-685): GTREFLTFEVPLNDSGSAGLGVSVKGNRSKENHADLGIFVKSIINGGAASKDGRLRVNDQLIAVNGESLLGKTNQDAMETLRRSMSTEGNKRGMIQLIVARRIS
Chain of NHERF4_2, Q86UT5 (Q86UT5 220-308): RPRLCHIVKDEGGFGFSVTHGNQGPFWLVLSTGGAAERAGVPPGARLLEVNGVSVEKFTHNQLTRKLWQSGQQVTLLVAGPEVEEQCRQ
Chain of AHNAK1, Q09666 (Q09666 4-100): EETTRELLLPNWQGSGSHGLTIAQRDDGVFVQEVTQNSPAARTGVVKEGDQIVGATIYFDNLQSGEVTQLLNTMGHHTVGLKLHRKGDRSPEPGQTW

Binder: LSDPSVSTVV [GRIN1, Q05586;Q05586-2]
pKd (AHNAK1, Q09666; [2]): below the threshold
pKd (NHERF4_2, Q86UT5; [2]): below the threshold
pKd (FRMPD2_2, Q68DX3; [2]): below the threshold
pKd (PDZD2_2, O15018; [2]): 4.44
pKd (SNTG2, Q9NY99; [2]): below the threshold
pKd (SCRIB_3, Q14160; [2]): below the threshold
pKd (GRIP1_4, Q9Y3R0; [2]): below the threshold
pKd (MPDZ_12, O75970; [2]): below the threshold
pKd (GRID2IP_2, A4D2P6; [2]): below the threshold
pKd (PTPN13_1, Q12923; [2]): below the threshold
pKd (GRIP1_7, Q9Y3R0; [2]): below the threshold
pKd (DLG4_2, P78352; [2]): 4.31
pKd (LNX1_3, Q8TBB1; [2]): below the threshold
pKd (APBA1_2, Q02410; [2]): below the threshold
pKd (FRMPD2_1, Q68DX3; [2]): below the threshold
pKd (LIN7B, Q9HAP6; [2]): below the threshold
pKd (NHERF3_4, Q5T2W1; [2]): below the threshold
pKd (MAGI2_6, Q86UL8; [2]): below the threshold
pKd (MPP2, Q14168; [2]): below the threshold
pKd (FRMPD4, Q14CM0; [2]): below the threshold
pKd (LIMK2, P53671; [2]): below the threshold
pKd (DLG1_2, Q12959; [2]): 4.51
pKd (GRIP2_7, Q9C0E4; [2]): below the threshold
pKd (NOS1, P29475; [2]): below the threshold

Binder: EMDRRPATVV [PLCB4, Q15147]
pKd (AHNAK1, Q09666; [1]): below the threshold
pKd (NHERF4_2, Q86UT5; [1]): below the threshold
pKd (PARD3_3, Q8TEW0): below the threshold
pKd (FRMPD2_2, Q68DX3; [1]): 3.78
pKd (PDZD2_2, O15018; [1]): 3.87
pKd (SNTG2, Q9NY99; [1]): 3.71
pKd (SCRIB_3, Q14160; [1]): 4.1
pKd (GRIP1_4, Q9Y3R0; [1]): below the threshold
pKd (MPDZ_12, O75970; [1]): below the threshold
pKd (GRID2IP_2, A4D2P6; [1]): 3.93
pKd (PTPN13_1, Q12923; [1]): below the threshold
pKd (GRIP1_7, Q9Y3R0; [1]): below the threshold
pKd (DLG4_2, P78352; [1]): 4.25
pKd (LNX1_3, Q8TBB1; [1]): below the threshold
pKd (APBA1_2, Q02410; [1]): 3.79
pKd (DLG3_3, Q92796): 3.78
pKd (FRMPD2_1, Q68DX3; [1]): 3.97
pKd (LIN7B, Q9HAP6; [1]): below the threshold
pKd (NHERF3_4, Q5T2W1; [1]): below the threshold
pKd (MAGI2_4, Q86UL8): 3.77
pKd (MAGI2_6, Q86UL8; [1]): below the threshold
pKd (MPP2, Q14168; [1]): below the threshold
pKd (FRMPD4, Q14CM0; [1]): 3.55
pKd (LIMK2, P53671; [1]): 3.52
pKd (GRIP2_7, Q9C0E4; [1]): 3.63
pKd (NOS1, P29475; [1]): 4.11

Now from value to binder:

pKd (AHNAK1, Q09666; [1]): below the threshold
pKd (NHERF4_2, Q86UT5; [1]): below the threshold
pKd (PARD3_3, Q8TEW0): below the threshold
pKd (FRMPD2_2, Q68DX3; [1]): below the threshold
pKd (PDZD2_2, O15018; [1]): 4.01
pKd (SNTG2, Q9NY99; [1]): below the threshold
pKd (SCRIB_3, Q14160; [1]): below the threshold
pKd (GRIP1_4, Q9Y3R0; [1]): below the threshold
pKd (MPDZ_12, O75970; [1]): below the threshold
pKd (GRID2IP_2, A4D2P6; [1]): 4.51
pKd (PTPN13_1, Q12923; [1]): below the threshold
pKd (GRIP1_7, Q9Y3R0; [1]): below the threshold
pKd (DLG4_2, P78352; [1]): below the threshold
pKd (LNX1_3, Q8TBB1; [1]): below the threshold
pKd (APBA1_2, Q02410; [1]): 3.54
pKd (DLG3_3, Q92796): below the threshold
pKd (FRMPD2_1, Q68DX3; [1]): below the threshold
pKd (LIN7B, Q9HAP6; [1]): below the threshold
pKd (NHERF3_4, Q5T2W1; [1]): below the threshold
pKd (MAGI2_4, Q86UL8): below the threshold
pKd (MAGI2_6, Q86UL8; [1]): below the threshold
pKd (MPP2, Q14168; [1]): below the threshold
pKd (FRMPD4, Q14CM0; [1]): below the threshold
pKd (LIMK2, P53671; [1]): below the threshold
pKd (DLG1_2, Q12959; [1]): below the threshold
pKd (GRIP2_7, Q9C0E4; [1]): below the threshold
pKd (NOS1, P29475; [1]): below the threshold
Binder: PRVKPQRSKV [PPP1R13L, Q8WUF5]

pKd (AHNAK1, Q09666; [1]): below the threshold
pKd (NHERF4_2, Q86UT5; [1]): below the threshold
pKd (PARD3_3, Q8TEW0): 4.16
pKd (FRMPD2_2, Q68DX3; [1]): below the threshold
pKd (SNTG2, Q9NY99; [1]): 4.22
pKd (SCRIB_3, Q14160; [1]): 5.08
pKd (GRIP1_4, Q9Y3R0; [1]): below the threshold
pKd (MPDZ_12, O75970; [1]): below the threshold
pKd (PTPN13_1, Q12923; [1]): below the threshold
pKd (GRIP1_7, Q9Y3R0; [1]): below the threshold
pKd (DLG4_2, P78352; [1]): below the threshold
pKd (LNX1_3, Q8TBB1; [1]): below the threshold
pKd (DLG3_3, Q92796): below the threshold
pKd (FRMPD2_1, Q68DX3; [1]): below the threshold
pKd (LIN7B, Q9HAP6; [1]): below the threshold
pKd (NHERF3_4, Q5T2W1; [1]): below the threshold
pKd (MAGI2_4, Q86UL8): below the threshold
pKd (MAGI2_6, Q86UL8; [1]): 3.92
pKd (MPP2, Q14168; [1]): below the threshold
pKd (FRMPD4, Q14CM0; [1]): 4.66
pKd (LIMK2, P53671; [1]): below the threshold
pKd (DLG1_2, Q12959; [1]): below the threshold
pKd (GRIP2_7, Q9C0E4; [1]): below the threshold
pKd (NOS1, P29475; [1]): below the threshold
Binder: NDPAWDETNL [ARHGEF7, Q14155;Q14155-1]

Reference: PMC9482650, “Quantitative fragmentomics allow affinity mapping of interactomes” (Nature Communications, 2022)
